# From article PMC10397247
# T1: 4H3613-bH
# T1 chain: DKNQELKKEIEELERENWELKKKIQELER
# T2: 4H1544-bH
# T2 chain: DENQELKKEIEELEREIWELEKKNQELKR
# T3: 4H1338-bH
# T3 chain: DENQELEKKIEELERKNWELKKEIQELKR
# T4: 4H570-bH
# T4 chain: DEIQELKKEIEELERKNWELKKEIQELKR
# T5: 4H1348-bH
# T5 chain: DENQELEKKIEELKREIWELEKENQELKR
# T6: 4H3858-bH
# T6 chain: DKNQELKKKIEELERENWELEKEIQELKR
# T7: 4H3817-bH
# T7 chain: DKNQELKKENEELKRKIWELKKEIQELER
# T8: 4H3974-bH
# T8 chain: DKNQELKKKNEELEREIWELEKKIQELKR
# T9: 4H1710-bH
# T9 chain: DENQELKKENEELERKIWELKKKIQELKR
# T10: 4H1449-bH
# T10 chain: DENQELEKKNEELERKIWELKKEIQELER
# T11: 4H3628-bH
# T11 chain: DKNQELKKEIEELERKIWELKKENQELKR
# T12: 4H1899-bH
# T12 chain: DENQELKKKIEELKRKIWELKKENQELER
# T13: 4H1373-bH
# T13 chain: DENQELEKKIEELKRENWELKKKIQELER
# T14: 4H850-bH
# T14 chain: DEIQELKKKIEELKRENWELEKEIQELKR
# T15: 4H1985-bH
# T15 chain: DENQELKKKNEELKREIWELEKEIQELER
# T16: O12-bN
# T16 chain: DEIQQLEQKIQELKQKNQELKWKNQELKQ
# T17: O5-bN
# T17 chain: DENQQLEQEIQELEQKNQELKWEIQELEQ
# T18: O7-bN
# T18 chain: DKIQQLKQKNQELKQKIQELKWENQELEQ
# T19: O3-bN
# T19 chain: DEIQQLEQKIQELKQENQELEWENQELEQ
# T20: O13-bN
# T20 chain: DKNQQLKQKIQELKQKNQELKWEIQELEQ
# T21: O4-bN
# T21 chain: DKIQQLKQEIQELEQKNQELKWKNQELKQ
# T22: O16-bN
# T22 chain: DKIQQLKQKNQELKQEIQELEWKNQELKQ
# T23: O10-bN
# T23 chain: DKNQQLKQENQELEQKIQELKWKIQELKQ
# T24: O2-bN
# T24 chain: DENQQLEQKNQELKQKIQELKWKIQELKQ
# T25: O15-bN
# T25 chain: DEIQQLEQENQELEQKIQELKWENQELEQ
# T26: O11-bN
# T26 chain: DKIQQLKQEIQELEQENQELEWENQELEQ
# T27: O9-bN
# T27 chain: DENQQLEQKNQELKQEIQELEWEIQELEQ
# T28: O8-bN
# T28 chain: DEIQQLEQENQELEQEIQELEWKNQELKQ
# T29: O14-bN
# T29 chain: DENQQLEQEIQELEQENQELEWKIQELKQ
# T30: O6-bN
# T30 chain: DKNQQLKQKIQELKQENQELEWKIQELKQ
# What was measured:
# Test in all cases: two-hybrid library CCNG1;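 further: natural log of median RNA to DNA barcode read ratio; higher means stronger binding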
# 4H3613-bH = target: T1, 4H3613-bH
# 4H1544-bH = target: T2, 4H1544-bH
# 4H1338-bH = target: T3, 4H1338-bH
# 4H570-bH = target: T4, 4H570-bH
# 4H1348-bH = target: T5, 4H1348-bH
# 4H3858-bH = target: T6, 4H3858-bH
# 4H3817-bH = target: T7, 4H3817-bH
# 4H3974-bH = target: T8, 4H3974-bH
# 4H1710-bH = target: T9, 4H1710-bH
# 4H1449-bH = target: T10, 4H1449-bH
# 4H3628-bH = target: T11, 4H3628-bH
# 4H1899-bH = target: T12, 4H1899-bH
# 4H1373-bH = target: T13, 4H1373-bH
# 4H850-bH = target: T14, 4H850-bH
# 4H1985-bH = target: T15, 4H1985-bH
# O12-bN = target: T16, O12-bN
# O5-bN = target: T17, O5-bN
# O7-bN = target: T18, O7-bN
# O3-bN = target: T19, O3-bN
# O13-bN = target: T20, O13-bN
# O4-bN = target: T21, O4-bN
# O16-bN = target: T22, O16-bN
# O10-bN = target: T23, O10-bN; settings: mean of both orientations
# O2-bN = target: T24, O2-bN
# O15-bN = target: T25, O15-bN
# O11-bN = target: T26, O11-bN
# O9-bN = target: T27, O9-bN; settings: mean of both orientations
# O8-bN = target: T28, O8-bN
# O14-bN = target: T29, O14-bN
# O6-bN = target: T30, O6-bN
binder,measurement,setting,value
DENQELEKKIEELERKNWELKKEIQELKR [4H1338-bH],interaction score,4H3613-bH,-0.0861
same,interaction score,4H1544-bH,0.712
same,interaction score,4H1338-bH,0.937
same,interaction score,4H570-bH,-0.436
same,interaction score,4H1348-bH,1.22
same,interaction score,4H3858-bH,1.35
same,interaction score,4H3817-bH,-0.423
same,interaction score,4H3974-bH,0.694
same,interaction score,4H1710-bH,-0.178
same,interaction score,4H1449-bH,-0.182
same,interaction score,4H3628-bH,0.15
same,interaction score,4H1899-bH,-0.277
same,interaction score,4H1373-bH,0.156
same,interaction score,4H850-bH,1.44
same,interaction score,4H1985-bH,0.0593
DKNQQLKQENQELEQKIQELKWKIQELKQ [O10-bN],interaction score,O12-bN,-1.87
same,interaction score,O5-bN,0.186
same,interaction score,O7-bN,0.28
same,interaction score,O3-bN,0.129
same,interaction score,O13-bN,-0.398
same,interaction score,O4-bN,-0.783
same,interaction score,O16-bN,-0.104
same,interaction score,O10-bN,-0.625
same,interaction score,O2-bN,0.523
same,interaction score,O15-bN,0.569
same,interaction score,O11-bN,0.648
same,interaction score,O9-bN,1.38
same,interaction score,O8-bN,-0.514
same,interaction score,O14-bN,-1.59
same,interaction score,O6-bN,-0.552
